From patent publication US20220356246A1 (NANJING IMMUNOPHAGE BIOTECH, published 2022)
Changes are numbered by the printed parent chain.

B1: anti-ROR1 antibody clone C3 (antibody, V domains shown)
VH: QVQLQESGPGLVKPSETLSLTCTVSGGSISSYYWSWIRQLPGKGLEWIGYMHYSGSTSYNPSLKGRLTISVDTSTNQFSLKLGSVTAADTAVYYCARYYYHDSSGYYSYFDYWGQGTLVTVSS
VL: EIVLTQSPGTLSLSPGERATLSCRASQSVSSYLAWYQQKAGQAPRLLIYDASNRASGIPARFSGSGSGTDFTLTISSLEPEDFAVYYCQQRSNWPPTFGGGTKVEIK
notes: also called anti-ROR1 (clone C3)
B2: anti-ROR1 antibody clone G3 (antibody, V domains shown)
VH: QVQLQQWGAGLLKPSETLSLTCAVYGGSFSGYYWSWIRQPPGKGLEWIGEINHSGSTSYNPSLKSRVTISVDTSKNQFSLKLSSVTAADTAVYYCARGHSSGWYRRYFDLWGRGTLVTVSS
VL: B1 VL with G9A, A40P, S56T, R61K
B3: anti-ROR1 antibody clone G6 (antibody, V domains shown)
VH: EVQLVESGGGVVQPGGSLRLSCAASGFTFDDYAMHWVRQAPGKGLEWVSLISGDGGSTYYADSVKGRFTISRDNAKNSLYLQMNSLRAEDTAVYYCARDNWNDVYYYYGMDVWGQGTTVTVSS
VL: DIQLTQSPSSLSASIGDTVTISCQASRDISDYLNWYQHKPGKAPKLLIYDASNLATGVPSRFSGSGSGTDFTLTIKSLQPEDVATYFCQQDDLLPLTFGGGTKVDIK

What follows are binders tested against T1, Human ROR1-ECD (human, UniProt Q01973 30-406) (assay: BLI (Fortebio Octet RED96), mAb on AHC biosensor, human ROR1-ECD as analyte).
T1 construct: extracellular domain; Analyte in the Fortebio Octet assay; also called ROR1-derived extracellular domain fragment
T1 sequence (Q01973 30-406): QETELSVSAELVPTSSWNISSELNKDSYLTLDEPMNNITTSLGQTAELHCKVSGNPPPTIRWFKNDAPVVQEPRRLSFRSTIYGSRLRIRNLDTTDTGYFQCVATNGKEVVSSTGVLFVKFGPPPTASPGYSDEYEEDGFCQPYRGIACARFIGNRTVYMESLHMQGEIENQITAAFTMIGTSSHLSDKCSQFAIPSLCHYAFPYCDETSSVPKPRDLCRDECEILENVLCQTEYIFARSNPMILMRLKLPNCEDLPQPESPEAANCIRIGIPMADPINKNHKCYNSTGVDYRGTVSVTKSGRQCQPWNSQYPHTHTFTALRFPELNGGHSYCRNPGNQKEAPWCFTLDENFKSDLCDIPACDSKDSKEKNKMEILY
Description: Human ROR1-ECD was diluted in KB buffer (0.1% BSA, 0.05% Tween 20, 1×PBS, pH 7.4) to various concentrations (from about 500 nM to about 62.5 nM), and the mAb was also diluted in KB buffer to 10 μg/mL. The mAb was loading to anti-hIgG Fc Capture (AHC) Biosensors (PALL, Fortebio), and the diluted Human ROR1-ECD was associated with Mab, then dissociated in KB buffer. Association (k-on) and dissociation (k-off) rate constants were calculated based on a 1:1 Langmuir binding model using Fortebio Date Analysis 7.1 software (PALL, Fortebio).
B1: binds. B2: binds. B3: binds.

What follows are binders tested against T2, human ROR1 expressed on CHO-K1 cells (human, UniProt Q01973 30-937) (assay: flow cytometry on CHO-K1-ROR1 cells, PE anti-human IgG-Fc).
T2 construct: whole, on cells; also called CHO-K1-ROR1
T2 sequence (Q01973 30-937): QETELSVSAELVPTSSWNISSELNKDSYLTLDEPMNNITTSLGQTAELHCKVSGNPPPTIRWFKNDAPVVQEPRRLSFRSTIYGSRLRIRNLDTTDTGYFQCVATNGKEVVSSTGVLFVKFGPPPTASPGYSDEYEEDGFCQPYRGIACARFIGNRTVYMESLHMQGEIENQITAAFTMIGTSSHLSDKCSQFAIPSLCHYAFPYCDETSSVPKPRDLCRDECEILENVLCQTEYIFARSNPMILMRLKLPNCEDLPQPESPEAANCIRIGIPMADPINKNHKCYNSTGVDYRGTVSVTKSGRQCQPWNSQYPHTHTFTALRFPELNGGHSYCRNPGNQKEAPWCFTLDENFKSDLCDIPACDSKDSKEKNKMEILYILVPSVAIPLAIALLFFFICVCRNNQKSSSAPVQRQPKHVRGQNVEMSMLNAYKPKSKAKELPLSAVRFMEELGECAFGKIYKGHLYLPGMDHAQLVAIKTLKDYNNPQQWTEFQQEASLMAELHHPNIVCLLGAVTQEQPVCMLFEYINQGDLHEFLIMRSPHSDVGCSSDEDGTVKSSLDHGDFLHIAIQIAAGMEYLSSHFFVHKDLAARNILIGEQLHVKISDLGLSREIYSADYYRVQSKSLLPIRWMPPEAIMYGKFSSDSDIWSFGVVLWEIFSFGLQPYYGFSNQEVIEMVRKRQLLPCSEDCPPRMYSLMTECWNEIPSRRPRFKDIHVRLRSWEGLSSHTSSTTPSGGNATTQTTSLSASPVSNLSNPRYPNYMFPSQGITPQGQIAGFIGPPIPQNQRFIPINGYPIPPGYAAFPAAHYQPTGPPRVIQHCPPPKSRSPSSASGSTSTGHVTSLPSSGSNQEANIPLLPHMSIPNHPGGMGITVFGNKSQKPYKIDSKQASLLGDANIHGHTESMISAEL
Description: CHO-K1 cell line was transduced with lentivector carrying human ROR1. CHO-K1-ROR1 cells were resuspended in FACS buffer and Fc receptors were blocked prior to incubation with purified ROR1 mAbs. 5×10⁵ cells in 100 μL FACS buffer were aliquoted to separate tubes and the purified mAb was added. Antibody concentration is from about 30 μg/mL to about 0.000508 μg/mL. Cells were incubated at 4 degrees for 1 hour, then washed twice with excess FACS buffer. Cells were resuspended in 100 μL FACS buffer and 0.5 μg of anti-human IgG-Fc (PE) secondary antibody (ab98596) was added to samples, incubated for 30 minutes and washed twice with excess FACS buffer.
B1: binds. B2: binds. B3: binds.
